Assay results: publication PMC2573919, “The Desensitization Gating of the MthK K^+ Channel Is Governed by Its Cytoplasmic Amino Terminus” (PLoS Biology, 2008)
Where no end group is shown, it is not given here.

Target: Isolated RCK domain (M107-A336) of MthK, preparation for NMR (from pQE70-MthK) (Methanobacterium thermoautotrophicum, UniProt O27564 107-336)
Assay: NMR titration; 700-MHz 1H NMR, 25 °C; isolated RCK titrated with synthetic peptide at [peptide]:[RCK] 0:1, 1:5, 1:2, 1:1 and 1:0; 20 mM Tris-HCl (pH 7.5), 150 mM KCl, 1 mM DTT; RCK concentrated to approximately 200 μM; disappearance of the peptide's His11 and Met1 peaks followed
Conditions: both partners purified

binding result: binds
B1: synthetic aa1–11 peptide (peptide)
peptide: MVLVIEIIRKH-NH2
notes: MthK K+ channel of Methanobacterium thermoautotrophicum, N-terminal residues 1-11; source: synthetic peptide (Celtek Peptides)
